The assay addresses T1, murine IA^d MHC class II heterodimer expressed on the surface of Drosophila S2 cells (murine, UniProt P04228 24-256; P01921 28-265).
T1 construct: whole, on cells; Expressed without peptide on Drosophila S2 cells, alone or with accessory molecules; also called H2-A^d; recombinant MHC class II
T1 sequence (MHC II alpha, looked up): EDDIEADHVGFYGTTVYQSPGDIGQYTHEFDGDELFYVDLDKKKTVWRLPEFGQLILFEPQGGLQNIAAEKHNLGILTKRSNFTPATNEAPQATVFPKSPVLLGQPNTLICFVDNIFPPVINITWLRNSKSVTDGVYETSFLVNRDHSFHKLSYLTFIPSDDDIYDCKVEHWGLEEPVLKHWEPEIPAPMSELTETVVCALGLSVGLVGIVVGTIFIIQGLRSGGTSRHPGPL
T1 sequence (MHC II beta, looked up): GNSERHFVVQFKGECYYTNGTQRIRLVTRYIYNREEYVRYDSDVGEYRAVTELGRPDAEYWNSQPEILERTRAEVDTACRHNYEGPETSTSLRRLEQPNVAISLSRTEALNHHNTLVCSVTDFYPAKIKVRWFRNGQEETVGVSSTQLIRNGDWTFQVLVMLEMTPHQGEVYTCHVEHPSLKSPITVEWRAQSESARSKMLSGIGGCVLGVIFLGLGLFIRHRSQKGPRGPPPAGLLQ
Kind of assay: inferred by the filing from OVA-peptide-dose-dependent T cell proliferation with peptide-loaded Drosophila APC; no direct binding assay. How it is done: Proliferation is assayed as described in Example 5. The proliferation is measured in counts per minute (cpm)×1000 as plotted on the Y-axis against increasing concentrations of OVA peptide in μM on the X-axis. […] Proliferative responses with recombinant MHC class II alone are shown in the line having closed circles. Those with MHC class II combined with either costimulatory molecules B7.1 or B7.2 are shown respectively with lines having open and closed squares.
The effect of peptide presentation in the presence of MHC class II with and without accessory molecules, B7.1, B7.2 or B7.2 plus ICAM-1, was first assessed in a proliferation assay performed as described by Webb et al., Cell, 63:1249 (1990). Briefly, 5×10⁴ CD4⁺ T cells were cultured in microtiter wells with 5×10⁴ Drosophila cells in 300 μl of culture medium. Eighteen hours prior to harvesting, 100 μl of supernatant were removed for cytokine analysis and 1 μCi of ³H-thymidine was added to each well. At the times indicated (3, 4 or 5 days), the wells were individually harvested onto glass fiber filters and counted in a liquid scintillation counter.

The values that follow come from patent publication US20050054090A1 (Scripps Research, published 2005).

B1: ovalbumin323-339 (OVA) peptide (peptide)
peptide: ISQAVHAAHAEINEAGR
notes: Chemically synthesized by T-BOC chemistry and added to the cultures; also called ovalbumin peptide 323-339
On to B1, for which the binding result is “binds”.
